Measured values reported in patent US20190276526A1 (AbbVie / Abbott, published 2019).
Values belong to the binder of their own block, whether it stands above or below them.

Assays:
Rat RGMa-His (rat) = biological target: T1, Rat RGMa-His (rat) (UniProt D4A188); assay: BIAcore
T1 sequence: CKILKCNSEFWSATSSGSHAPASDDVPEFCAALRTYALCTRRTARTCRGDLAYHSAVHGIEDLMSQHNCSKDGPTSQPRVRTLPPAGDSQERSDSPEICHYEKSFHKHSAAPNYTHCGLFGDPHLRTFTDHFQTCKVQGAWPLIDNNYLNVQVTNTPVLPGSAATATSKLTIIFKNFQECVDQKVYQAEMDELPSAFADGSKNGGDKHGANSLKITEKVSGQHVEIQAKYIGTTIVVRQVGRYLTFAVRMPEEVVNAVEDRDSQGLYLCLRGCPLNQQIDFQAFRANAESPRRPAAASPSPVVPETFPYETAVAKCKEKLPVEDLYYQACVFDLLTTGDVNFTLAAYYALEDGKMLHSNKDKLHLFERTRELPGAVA

hRGMa-Fc = biological target: T2, hRGMa-Fc (human, UniProt Q96B86 47-422, limits assumed, biotinylated in the neogenin ELISA and the MSD assay); assay: HCS (high content analysis) live cell binding inhibition assay: Fc-tagged RGMa complexed with Cy3-labeled anti-Fc antibody, preincubated with the antibody, then added to cells for 30 min at 37 C; blocked: RGMa-Fc binding to SH-SY5Y cells; n=2
T2 construct: also called biot-hRGMa-Fc; biotinylated hRGMa-Fc; not shown: Fc part
T2 sequence: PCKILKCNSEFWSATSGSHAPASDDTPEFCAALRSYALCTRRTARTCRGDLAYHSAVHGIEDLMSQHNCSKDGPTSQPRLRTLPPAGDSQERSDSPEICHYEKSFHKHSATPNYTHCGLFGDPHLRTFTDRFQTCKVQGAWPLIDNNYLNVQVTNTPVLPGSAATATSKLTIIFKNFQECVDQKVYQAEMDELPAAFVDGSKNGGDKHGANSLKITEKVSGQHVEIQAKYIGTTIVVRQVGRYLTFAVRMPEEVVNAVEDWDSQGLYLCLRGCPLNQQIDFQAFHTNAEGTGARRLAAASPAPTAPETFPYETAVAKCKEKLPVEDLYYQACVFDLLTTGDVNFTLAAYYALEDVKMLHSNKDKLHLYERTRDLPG
Procedure: FIGS. 13A-F and 14A-H illustrate the neutralizing effects of the specified antibodies on RGMa binding to neuronal cells using a live cell binding assay on SH-SY5Y cells and rat hippocampal primary neurons. Fc-tagged RGMa and Cy3-labeled anti-Fc antibodies are complexed at 4° C. for 60 minutes, followed by an incubation of the complex with a blocking antibody at room temperature for 10 minutes. The RGMa-Cy3 +antibody complex is then added to cells together with Hoechsts 33342 for 30 minutes at 37° C. to allow binding onto the cells. The cell are then washed twice in culture medium and fixed with PFH. Cell imaging is performed with the BD Pathway and images analyzed with the Definiens Architect software.

kon (Rat RGMa-His (rat)): 22000 M⁻¹ s⁻¹
B1: AE12-1-V (antibody, V domains shown)
VH: EVQLVQSGAEVKKPGASVKVSCKASGYTFTSHGISWVRQAPGQGLDWMGWISPYSGNTNYAQKLQGRVTMTTDTSTSTAYMELSSLRSEDTAVYYCARVGSGPYYYMDVWGQGTLVTVSS
VL: QSALTQPRSVSGSPGQSVTISCTGTSSSVGDSIYVSWYQQHPGKAPKLMLYDVTKRPSGVPDRFSGSKSGNTASLTISGLQAEDEADYYCVSYAGTDTLFGGGTKVTVL

IC50 (read off the curve) (hRGMa-Fc): ~10 nM
B2: AE12-6 (antibody, V domains shown)
VH: EVQLVQSGAEVKKPGASVKVSCKASGYIFTNYDIAWVRQAPGQGLEWMGWMNPDSGNTGFVQKFKGRVTATSNTDITTAYMELSSLTSEDTAVYYCARDRFGSGYDLDHWGQGTLVTVSS
VL: SYELTQPPSVSVAPGQTARITCGGNNIGSKSVHWYQQKPGQAPVLVVYDDSDRPSGIPERFSGSNSGNTATLTISRVEAGDEADYYCQVWGSSSDHYVFGTGTKVTVL
notes: lambda light chain
